Details in all cases: remark: other sources report otherwise
The target in test [1] is T1, full-length human KIF5A-mScarlet-StrepII (human), Q12840.
T1 chain: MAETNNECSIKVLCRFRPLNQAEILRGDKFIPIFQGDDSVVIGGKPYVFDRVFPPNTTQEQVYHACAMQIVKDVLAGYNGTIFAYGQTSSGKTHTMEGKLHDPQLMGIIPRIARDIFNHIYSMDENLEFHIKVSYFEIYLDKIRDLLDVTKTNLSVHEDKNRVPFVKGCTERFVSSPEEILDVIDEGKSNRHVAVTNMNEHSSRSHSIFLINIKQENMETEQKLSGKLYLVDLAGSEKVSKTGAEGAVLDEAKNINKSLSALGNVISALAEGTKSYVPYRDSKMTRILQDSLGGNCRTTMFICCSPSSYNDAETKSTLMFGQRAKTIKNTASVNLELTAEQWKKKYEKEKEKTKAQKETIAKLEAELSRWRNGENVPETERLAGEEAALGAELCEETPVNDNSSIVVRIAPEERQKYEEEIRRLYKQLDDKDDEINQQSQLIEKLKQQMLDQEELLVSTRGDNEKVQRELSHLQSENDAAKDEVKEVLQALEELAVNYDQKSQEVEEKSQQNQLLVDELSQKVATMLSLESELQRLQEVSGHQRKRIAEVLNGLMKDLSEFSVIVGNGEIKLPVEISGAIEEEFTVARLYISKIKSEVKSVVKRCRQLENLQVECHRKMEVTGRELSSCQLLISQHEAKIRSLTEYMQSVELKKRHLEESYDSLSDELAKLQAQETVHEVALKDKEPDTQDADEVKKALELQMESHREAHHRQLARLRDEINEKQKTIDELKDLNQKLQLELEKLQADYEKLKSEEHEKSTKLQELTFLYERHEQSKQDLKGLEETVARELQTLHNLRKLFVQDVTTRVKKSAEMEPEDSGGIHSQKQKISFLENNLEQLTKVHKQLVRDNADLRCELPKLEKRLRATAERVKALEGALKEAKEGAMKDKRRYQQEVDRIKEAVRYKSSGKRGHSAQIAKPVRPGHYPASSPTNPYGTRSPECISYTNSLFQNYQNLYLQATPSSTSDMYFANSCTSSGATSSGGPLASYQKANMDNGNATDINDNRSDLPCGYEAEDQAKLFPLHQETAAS
The experiment in a line: SEC-MALS; purified full-length KIF5 alone; BioSep SEC-s4000 column, GF150 buffer (25 mM HEPES-KOH, 150 mM KCl, 2 mM MgCl2). (SEC sorts molecules by how far they enter the pores of the column.)

Test [2] has as its target T1, full-length human …. The test can be described thus: single-molecule fluorescence brightness (TIRF microscopy); brightness of motile KIF5A-mScarlet molecules on microtubules, ATP.
The target in test [3] is T2, full-length human KIF5B-mScarlet-StrepII (human), P33176.
T2 chain: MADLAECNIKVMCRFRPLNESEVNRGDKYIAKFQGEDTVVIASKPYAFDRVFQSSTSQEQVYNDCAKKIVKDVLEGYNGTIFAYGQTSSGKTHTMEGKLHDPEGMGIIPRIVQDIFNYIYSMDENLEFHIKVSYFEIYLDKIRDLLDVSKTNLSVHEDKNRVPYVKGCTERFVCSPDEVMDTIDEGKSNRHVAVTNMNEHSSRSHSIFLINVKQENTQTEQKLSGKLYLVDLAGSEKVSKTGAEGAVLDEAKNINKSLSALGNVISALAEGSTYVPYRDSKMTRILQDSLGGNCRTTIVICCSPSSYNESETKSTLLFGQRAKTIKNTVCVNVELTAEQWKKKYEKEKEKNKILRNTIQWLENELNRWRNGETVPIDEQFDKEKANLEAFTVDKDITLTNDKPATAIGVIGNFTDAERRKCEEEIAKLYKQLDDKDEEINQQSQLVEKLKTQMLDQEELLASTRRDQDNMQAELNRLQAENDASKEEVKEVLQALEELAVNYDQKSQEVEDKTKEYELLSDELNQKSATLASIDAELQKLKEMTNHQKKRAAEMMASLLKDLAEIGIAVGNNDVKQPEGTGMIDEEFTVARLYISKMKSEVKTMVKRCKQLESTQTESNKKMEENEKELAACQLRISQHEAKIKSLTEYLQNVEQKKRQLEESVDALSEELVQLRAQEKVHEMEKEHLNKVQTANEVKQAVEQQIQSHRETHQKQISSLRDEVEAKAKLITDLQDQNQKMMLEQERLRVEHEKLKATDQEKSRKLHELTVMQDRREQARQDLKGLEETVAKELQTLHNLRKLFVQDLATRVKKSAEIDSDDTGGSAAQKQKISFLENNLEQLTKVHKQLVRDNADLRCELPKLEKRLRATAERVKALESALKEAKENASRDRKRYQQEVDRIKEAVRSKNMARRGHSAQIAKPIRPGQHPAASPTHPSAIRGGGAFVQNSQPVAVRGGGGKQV
The test can be described thus: SEC-MALS; purified full-length KIF5 alone; BioSep SEC-s4000 column, GF150 buffer (25 mM HEPES-KOH, 150 mM KCl, 2 mM MgCl2).

B1: full-length human KIF5A-mScarlet-StrepII, Q12840 1-1032 (natural protein)
chain: MAETNNECSIKVLCRFRPLNQAEILRGDKFIPIFQGDDSVVIGGKPYVFDRVFPPNTTQEQVYHACAMQIVKDVLAGYNGTIFAYGQTSSGKTHTMEGKLHDPQLMGIIPRIARDIFNHIYSMDENLEFHIKVSYFEIYLDKIRDLLDVTKTNLSVHEDKNRVPFVKGCTERFVSSPEEILDVIDEGKSNRHVAVTNMNEHSSRSHSIFLINIKQENMETEQKLSGKLYLVDLAGSEKVSKTGAEGAVLDEAKNINKSLSALGNVISALAEGTKSYVPYRDSKMTRILQDSLGGNCRTTMFICCSPSSYNDAETKSTLMFGQRAKTIKNTASVNLELTAEQWKKKYEKEKEKTKAQKETIAKLEAELSRWRNGENVPETERLAGEEAALGAELCEETPVNDNSSIVVRIAPEERQKYEEEIRRLYKQLDDKDDEINQQSQLIEKLKQQMLDQEELLVSTRGDNEKVQRELSHLQSENDAAKDEVKEVLQALEELAVNYDQKSQEVEEKSQQNQLLVDELSQKVATMLSLESELQRLQEVSGHQRKRIAEVLNGLMKDLSEFSVIVGNGEIKLPVEISGAIEEEFTVARLYISKIKSEVKSVVKRCRQLENLQVECHRKMEVTGRELSSCQLLISQHEAKIRSLTEYMQSVELKKRHLEESYDSLSDELAKLQAQETVHEVALKDKEPDTQDADEVKKALELQMESHREAHHRQLARLRDEINEKQKTIDELKDLNQKLQLELEKLQADYEKLKSEEHEKSTKLQELTFLYERHEQSKQDLKGLEETVARELQTLHNLRKLFVQDVTTRVKKSAEMEPEDSGGIHSQKQKISFLENNLEQLTKVHKQLVRDNADLRCELPKLEKRLRATAERVKALEGALKEAKEGAMKDKRRYQQEVDRIKEAVRYKSSGKRGHSAQIAKPVRPGHYPASSPTNPYGTRSPECISYTNSLFQNYQNLYLQATPSSTSDMYFANSCTSSGATSSGGPLASYQKANMDNGNATDINDNRSDLPCGYEAEDQAKLFPLHQETAAS
For the molecule B1, the stoichiometry N in test [1] and in test [2] was 4 throughout.

B2: full-length human KIF5B-mScarlet-StrepII, P33176 1-963 (natural protein)
chain: MADLAECNIKVMCRFRPLNESEVNRGDKYIAKFQGEDTVVIASKPYAFDRVFQSSTSQEQVYNDCAKKIVKDVLEGYNGTIFAYGQTSSGKTHTMEGKLHDPEGMGIIPRIVQDIFNYIYSMDENLEFHIKVSYFEIYLDKIRDLLDVSKTNLSVHEDKNRVPYVKGCTERFVCSPDEVMDTIDEGKSNRHVAVTNMNEHSSRSHSIFLINVKQENTQTEQKLSGKLYLVDLAGSEKVSKTGAEGAVLDEAKNINKSLSALGNVISALAEGSTYVPYRDSKMTRILQDSLGGNCRTTIVICCSPSSYNESETKSTLLFGQRAKTIKNTVCVNVELTAEQWKKKYEKEKEKNKILRNTIQWLENELNRWRNGETVPIDEQFDKEKANLEAFTVDKDITLTNDKPATAIGVIGNFTDAERRKCEEEIAKLYKQLDDKDEEINQQSQLVEKLKTQMLDQEELLASTRRDQDNMQAELNRLQAENDASKEEVKEVLQALEELAVNYDQKSQEVEDKTKEYELLSDELNQKSATLASIDAELQKLKEMTNHQKKRAAEMMASLLKDLAEIGIAVGNNDVKQPEGTGMIDEEFTVARLYISKMKSEVKTMVKRCKQLESTQTESNKKMEENEKELAACQLRISQHEAKIKSLTEYLQNVEQKKRQLEESVDALSEELVQLRAQEKVHEMEKEHLNKVQTANEVKQAVEQQIQSHRETHQKQISSLRDEVEAKAKLITDLQDQNQKMMLEQERLRVEHEKLKATDQEKSRKLHELTVMQDRREQARQDLKGLEETVAKELQTLHNLRKLFVQDLATRVKKSAEIDSDDTGGSAAQKQKISFLENNLEQLTKVHKQLVRDNADLRCELPKLEKRLRATAERVKALESALKEAKENASRDRKRYQQEVDRIKEAVRSKNMARRGHSAQIAKPIRPGQHPAASPTHPSAIRGGGAFVQNSQPVAVRGGGGKQV
With B2, in test [3], the stoichiometry N was 2.

Broadly, the stoichiometry N is a count of units in the complex or per binding partner.

Source of the values: PMC9365671.
